Experimental data from US11020455B2, “Colony stimulating factor for use in pancreatic or colon cancer treatment” (ENDOR TECHNOLOGIES, S.L., priority 2015, dated 2021).

B1: G-CSF: Granulocyte Colony Stimulating Factor, recombinant protein; Filgrastim (Amgen) used in the experiments (protein, UniProt P09919 31-207, looked up)
Granulocyte …: TPLGPASSLPQSFLLKCLEQVRKIQGDGAALQEKLVSECATYKLCHPEELVLLGHSLGIPWAPLSSCPSQALQLAGCLSQLHSGLFLYQGLLQALEGISPELGPTLDTLQLDVADFATTIWQQMEELGMAPALQPTQGAMPAFASAFQRRAGGVLVASHLQSFLEVSYRVLRHLAQP
modifications: N-terminal methionine (filgrastim)
notes: Granulocyte Colony Stimulating Factor, recombinant protein; Filgrastim (Amgen) used in the experiments

Experiments:
melanoma = details: subcutaneous long-term therapy after surgical resection; cited from earlier work
sarcoma = details: monotherapy; cited from earlier work
prostate cancer = details: patients with prostate cancer; cited from earlier work
[1] = test system: peripheral blood granulocytes; assay: Peripheral blood granulocyte levels after single subcutaneous G-CSF injection in healthy athymic nu/nu mice; format: in vivo, mouse
Protocol: (§1) Depiction of the peripheral blood granulocytes levels in healthy C57BJL6 and Athymic nu/nu mice after the subcutaneous injection of a single dose of G-CSF (10 μg/kg) in C57BJL6, and 10, 25, 50 and 100 μg/kg of G-CSF in Athymic nu/nu mice. Blood samples were taken at different time points and peripheral blood granulocytes levels are represented as a total number of granulocytes (GRA×10^9/L).
(§2) As peripheral blood is the only tissue routinely available from mice, the peripheral blood hemogram was also assessed in order to provide information about the behavior of blood cell populations after the subcutaneous injection of different G-CSF doses (Filgrastim—Amgen). The peripheral blood collected from the right femoral artery with a heparinized syringe in vacutainer blood collection tubes containing EDTA (Sarstedt Microvette® CB 300) were immediately subjected to differential blood cell counts (red blood cells (RBCs), white blood cells (WBCs), and blood platelets (PLTs)) and measurement of blood hemoglobin concentration using a blood cell differential automatic analyzer (ABACUS JUNIOR VET). The data for each experimental group were obtained from three to five mice. Inventors especially focused their attention on the distribution of granulocytes in the peripheral blood which was determined at 1, 5 or 2, 6, 10 and 24 hrs after an initial dose of G-CSF subcutaneously. Peripheral blood granulocytes levels were analyzed in healthy (FIG. 7), and tumor-bearing mice (FIG. 8). C57BJL6 healthy mice were injected with G-CSF 10 μg/kg and healthy athymic nu/nu mice were injected with different doses of G-CSF: 0, 10, 25, 50 and 100 μg/kg (FIG. 7). Athymic nu/nu mice bearing subcutaneous MiaPaca tumor were injected with G-CSF 10, 25, 50 and 100 μg/kg and blood was extracted at 1.5 hr (FIG. 8).

Colon-26 SC tumors [2] = assay: Antitumoral efficacy in Colon-26 SC tumor model (Balb/C mice); format: in vivo, mouse; details: Colon-26, 10 μg/Kg SC daily, 18 days of treatment
Protocol: It is depicted the antitumoral efficacy of G-CSF in mouse colorectal SC tumors. BalbC mice bearing colorectal SC tumors were daily treated with subcutaneous G-CSF injection at a dose of 10 μg/kg. Total tumor volume (mm^3±SE) in saline (solid lines) and G-CSF10 μg/kg (dashed lines) groups, for 18 days of treatment are represented.
Depiction of the antitumoral efficacy of G-CSF in colorectal SC tumors. BalbC mice bearing Colon-26 SC tumors, with and without Sephadex papula, were treated daily with subcutaneous G-CSF injection at a dose of 50 ug/kg. […]
(§3) Mouse Models and Tumor Growth Studies Animal procedures met the guidelines of European Community Directive 86/609/EEC and were approved by the Local Ethical Committee. […] All animals were weighed and tumors were measured using manual caliper three times per week. SC tumor volumes were calculated according to the formula described by Attia and Weiss (Attia M A, et. al. “Immunology of spontaneous mammary carcinomas in mice. V. Acquired tumor resistance and enhancement in strain A mice infected with mammary tumor virus” Cancer Res. 1966, vol. 26, pp, 1787-1800), V (mm^3)=0.4×(larger diameter×smaller diameter^2). […]
Antitumoral experiments were carried out on immunocompetent Balb/C tumor-bearing mice treated with Sephadex. […] There were 4 animals per group and their survival was monitored daily (FIG. 6). […]

Panc-1 SC tumors = assay: Antitumoral efficacy in Panc-1 SC tumor model (athymic nu/nu mice); format: in vivo, mouse; details: Panc-1, 10 μg/Kg SC daily, 48 days of treatment
Protocol: It is depicted the antitumoral efficacy of G-CSF in human pancreatic SC tumors. Athymic nu/nu mice bearing Panc-1 SC tumors were daily treated with subcutaneous G-CSF injection at a dose of 10 μg/Kg, while GE was injected intraperitoneal at a dose of 80 mg/Kg two times per week during the whole experiment. Total tumor volume (mm^3±SE) in saline (solid lines), G-CSF 10 μg/Kg (dashed lines) and GE 80 mg/kg (dotted) groups, for 48 days of treatment are represented.
(§4) Human pancreatic adenocarcinoma cell lines, Panc-1 and MiaPaca cells and the mouse pancreatic adenocarcinoma cells Panc02, were used for pancreatic cancer efficacy studies. Murine colorectal carcinoma cell line, Colon-26 cells, was used for colon cancer efficacy studies. […]
as §3

Panc02 SC tumors = assay: Antitumoral efficacy in Panc02 SC tumor model (C57BJL6 mice); format: in vivo, mouse; details: Panc02, 100 μg/Kg SC daily, 20 days of treatment
Protocol: It is depicted the antitumoral efficacy of G-CSF in murine pancreatic SC tumors. C57BJL6 mice bearing Panc02 SC tumors were daily treated with subcutaneous G-CSF injection at a dose of 100 μg/kg. […]
as §4, §3

Colon-26 SC tumors [3] = assay: Effect of Sephadex on G-CSF antitumoral efficacy in Colon-26 model; format: in vivo, mouse; details: Colon-26 and Sephadex, 50 μg/Kg SC daily, 19 days
Protocol: Depiction of the antitumoral efficacy of G-CSF in colorectal SC tumors. BalbC mice bearing Colon-26 SC tumors, with and without Sephadex papula, were treated daily with subcutaneous G-CSF injection at a dose of 50 ug/kg. Total tumor volume (mm^3±SE) of saline (circle), G-CSF 50 μg/kg (square, abbreviated IT50), Sephadex-Saline (triangle), and Sephadex+G-CSF 50 μg/kg (cross, abbreviated IT-Sephadex.), for 19 days of treatment are represented.
Antitumoral experiments were carried out on immunocompetent Balb/C tumor-bearing mice treated with Sephadex. Sephadex treatments were initiated when SC Colon-26 tumors reached a tumor volume ranging from 90 to 110 mm^3 and 0.5 mL of Sephadex 16% (Sephadex G-150, Pharmacia Fine Chemicals, Sweden) was subcutaneously injected in the left side flank of mice. Control animals included were Saline and Sephadex groups. In this experiment, G-CSF group was treated at a dose of 50 μg/Kg (Filgrastim—Amgen). There were 4 animals per group and their survival was monitored daily (FIG. 6). In this model, Sephadex distracts functional granulocytes from the blood into the Sephadex papula thus abolishing G-CSF antitumoral activity. […]

MiaPaca SC tumors = assay: Antitumoral efficacy in MiaPaca SC tumor model (athymic nu/nu mice); format: in vivo, mouse; details: 10 μg/Kg SC daily, 37 days after treatment
Protocol: It is depicted the antitumoral efficacy of G-CSF in human pancreatic SC tumors. Athymic nu/nu mice bearing MiaPaca SC tumors were daily treated with subcutaneous G-CSF injection at a dose of 10 μg/kg, while GE was injected intraperitoneal at a dose of 80 mg/Kg two times per week during the whole experiment. Total tumor volume (mm^3±SE) in saline (solid lines), G-CSF 10 μg/kg (dashed lines) and GE 80 mg/kg (dotted) groups, for 37 days of treatment are represented.
as §4, §3

[4] = test system: peripheral blood granulocytes; assay: Peripheral blood granulocyte levels in athymic nu/nu mice bearing MiaPaca SC tumors; format: in vivo, mouse; details: MiaPaca tumor-bearing nu/nu mice, first SC injection at 10, 25, 50 and 100 μg/kg, blood at 1.5 hr
Protocol: Depiction of peripheral blood granulocytes levels in Athymic nu/nu mice bearing MiaPaca SC tumors after the subcutaneous injection of G-CSF 10, 25, 50 and 100 μg/kg. Blood samples were taken at 1.5 hr and peripheral blood granulocytes levels are represented as a total number of granulocytes (GRA 10^9/L).
as §2, with “C57BJL6 healthy mice were injected with G-CSF 10 μg/kg and healthy athymic nu/nu mice were injected with different doses of G-CSF: 0, 10, 25, 50 and 100 μg/kg (FIG. 7). Athymic nu/nu mice bearing subcutaneous MiaPaca tumor were injected with G-CSF 10, 25, 50 and 100 μg/kg and blood was extracted at 1.5 hr (FIG. 8).” left out

[5] = test system: neutrophils in peripheral blood; assay: Peripheral blood neutrophil levels in Colon-26 mice with Sephadex; format: in vivo, mouse; details: Sephadex-treated Colon-26 mice
Protocol: Antitumoral experiments were carried out on immunocompetent Balb/C tumor-bearing mice treated with Sephadex. Sephadex treatments were initiated when SC Colon-26 tumors reached a tumor volume ranging from 90 to 110 mm^3 and 0.5 mL of Sephadex 16% (Sephadex G-150, Pharmacia Fine Chemicals, Sweden) was subcutaneously injected in the left side flank of mice. Control animals included were Saline and Sephadex groups. In this experiment, G-CSF group was treated at a dose of 50 μg/Kg (Filgrastim—Amgen). There were 4 animals per group and their survival was monitored daily (FIG. 6). In this model, Sephadex distracts functional granulocytes from the blood into the Sephadex papula thus abolishing G-CSF antitumoral activity.
(§5) As peripheral blood is the only tissue routinely available from mice, the peripheral blood hemogram was also assessed in order to provide information about the behavior of blood cell populations after the subcutaneous injection of different G-CSF doses (Filgrastim—Amgen). […] Inventors especially focused their attention on the distribution of granulocytes in the peripheral blood which was determined at 1, 5 or 2, 6, 10 and 24 hrs after an initial dose of G-CSF subcutaneously. Peripheral blood granulocytes levels were analyzed in healthy (FIG. 7), and tumor-bearing mice (FIG. 8). […]

[6] = test system: peripheral blood granulocytes; assay: Peripheral blood granulocyte levels after single subcutaneous G-CSF injection in healthy C57BJL6 mice; format: in vivo, mouse
Protocol: as §1, §5

[7] = test system: tumor-infiltrating granulocytes; assay: Tumor granulocytes (CD45+CD11b+Ly6G+) by flow cytometry in Colon-26 tumors; format: in vivo, mouse; details: 10 μg/Kg SC, day 5, flow cytometry
Protocol: Depiction of the tumor granulocyte levels, defined as a CD45+CD11b+Ly6G+ triple positive population, analyzed by flow cytometry from Colon-26 tumors treated with 10 μg/kg of G-CSF during 5 days. Granulocytes cells from tumor are represented as a % of positive cells±SE.
To evaluate the antitumoral capacity of G-CSF in murine colorectal carcinoma, immunocompetent Balb/C mice bearing Colon-26 tumors were treated when SC tumors reached a tumor volume ranging from 90 to 110 mm^3. For G-CSF therapy, Balb/C mice were randomly divided in Saline and G-CSF groups. G-CSF treatment (Filgrastim—Amgen) was applied subcutaneously every day during the whole experiment (FIG. 4). At day 5 of the experiments, 4 animals of each treatment were sacrificed and tumors were collected. Granulocytes (GRA) cells were detected by FACS, analyzing the markers of these cells: CD45+CD11b+Ly6G (FIG. 5). Details about each treatment are described in the present table: […]

Molecule	therapeutic effect in melanoma patients (melanoma)	therapeutic benefit in sarcoma (sarcoma)	therapeutic benefit in prostate cancer patients (prostate cancer)	increase of granulocyte levels compared to untreated animals ([1]; single SC dose 10 μg/Kg) [fold]	increase of granulocyte levels compared to untreated animals ([1]; single SC dose 25 μg/Kg) [fold]	increase of granulocyte levels compared to untreated animals ([1]; single SC dose 50 μg/Kg) [fold]	increase of granulocyte levels compared to untreated animals ([1]; single SC dose 100 μg/Kg) [fold]	time of maximum peripheral blood granulocyte levels post-G-CSF injection ([1]; single SC injection) [h]	tumor inhibition (Colon-26 SC tumors [2])	tumor inhibition compared to saline (Panc-1 SC tumors)	tumor inhibition compared to saline (Panc02 SC tumors)	tumor inhibition (Colon-26 SC tumors [3]) [%]	tumor inhibition compared to saline (MiaPaca SC tumors)	peripheral blood granulocyte levels [4]	neutrophils levels in peripheral blood after G-CSF injection [5]	increase of granulocyte levels compared to untreated animals ([6]; single SC dose 10 μg/Kg) [fold]	time of maximum peripheral blood granulocyte levels post-G-CSF injection ([6]; single SC injection) [h]	tumor-infiltrating granulocytes (CD45+CD11b+Ly6G+ triple positive population) [7]
GM-CSF: Granulocyte Macrophage Colony Stimulating Factor, recombinant protein; only literature results cited	therapeutic effect	did not reveal a therapeutic benefit	therapeutic benefit															
B1				2.5	3.5	3.7	3.5	6	up to 60%	up to 90%	around 50%	50	up to 55%	increase in a dose response manner	smoothly recovered	2.5	6	significant increase
